In IntAct's records for PubMed 22975076:

Molecular target: tif1b_human TRIM28 (UniProt Q13263)
Sequence (Q13263 whole entry): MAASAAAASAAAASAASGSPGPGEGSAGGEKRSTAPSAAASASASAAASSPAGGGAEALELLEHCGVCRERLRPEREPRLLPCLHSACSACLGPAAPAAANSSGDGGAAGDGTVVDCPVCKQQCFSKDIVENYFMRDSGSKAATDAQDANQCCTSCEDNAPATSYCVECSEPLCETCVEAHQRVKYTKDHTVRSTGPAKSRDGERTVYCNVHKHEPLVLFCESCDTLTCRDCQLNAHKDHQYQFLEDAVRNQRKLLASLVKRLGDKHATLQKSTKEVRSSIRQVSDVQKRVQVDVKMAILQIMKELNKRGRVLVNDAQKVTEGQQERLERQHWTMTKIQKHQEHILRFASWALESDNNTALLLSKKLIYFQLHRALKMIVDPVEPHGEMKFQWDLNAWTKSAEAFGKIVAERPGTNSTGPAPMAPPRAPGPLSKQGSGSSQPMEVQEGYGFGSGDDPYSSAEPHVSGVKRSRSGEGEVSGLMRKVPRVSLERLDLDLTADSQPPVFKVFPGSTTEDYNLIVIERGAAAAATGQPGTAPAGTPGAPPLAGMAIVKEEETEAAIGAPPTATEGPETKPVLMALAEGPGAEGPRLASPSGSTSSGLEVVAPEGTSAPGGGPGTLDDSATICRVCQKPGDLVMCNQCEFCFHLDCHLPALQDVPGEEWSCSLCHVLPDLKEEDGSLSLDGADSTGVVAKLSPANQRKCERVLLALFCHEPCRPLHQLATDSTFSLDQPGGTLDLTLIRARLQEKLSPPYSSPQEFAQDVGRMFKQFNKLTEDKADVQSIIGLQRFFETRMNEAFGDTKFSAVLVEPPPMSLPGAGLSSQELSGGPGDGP

| effect of a mutation on the interaction | Substance |
| --- | --- |
| decreasing interaction | Zinc finger protein 350 (Homo sapiens), Q9GZX5 D12A |
| decreasing interaction | Zinc finger protein 350 (Homo sapiens), Q9GZX5 V13A |
